The text below walks through data of doi:10.1101/2021.02.03.429574 (bioRxiv, 2021).

In general, Kd refers to the concentration at which binding is half-saturated. The low end stands for a tighter complex, the high end for a looser complex.

Test [1] deals with photosystem I of Chlamydomonas reinhardtii, wild type (Chlamydomonas reinhardtii, UniProt P12154 1-751; P09144 1-735; P12356 63-227). Kind of test: flash-induced absorbance transients at 817 nm.
Test [2] has as its target PsaA (Pisum sativum photosystem I) (Pisum sativum (pea), UniProt P05310 16-758). Description: cryo-EM structure.
Test [3] deals with PsaB (Pisum sativum photosystem I) (Pisum sativum (pea), UniProt P05311 13-734). Description: cryo-EM structure.
Sequence of PsaB (Pisum sativum photosystem I) (P05311 13-734): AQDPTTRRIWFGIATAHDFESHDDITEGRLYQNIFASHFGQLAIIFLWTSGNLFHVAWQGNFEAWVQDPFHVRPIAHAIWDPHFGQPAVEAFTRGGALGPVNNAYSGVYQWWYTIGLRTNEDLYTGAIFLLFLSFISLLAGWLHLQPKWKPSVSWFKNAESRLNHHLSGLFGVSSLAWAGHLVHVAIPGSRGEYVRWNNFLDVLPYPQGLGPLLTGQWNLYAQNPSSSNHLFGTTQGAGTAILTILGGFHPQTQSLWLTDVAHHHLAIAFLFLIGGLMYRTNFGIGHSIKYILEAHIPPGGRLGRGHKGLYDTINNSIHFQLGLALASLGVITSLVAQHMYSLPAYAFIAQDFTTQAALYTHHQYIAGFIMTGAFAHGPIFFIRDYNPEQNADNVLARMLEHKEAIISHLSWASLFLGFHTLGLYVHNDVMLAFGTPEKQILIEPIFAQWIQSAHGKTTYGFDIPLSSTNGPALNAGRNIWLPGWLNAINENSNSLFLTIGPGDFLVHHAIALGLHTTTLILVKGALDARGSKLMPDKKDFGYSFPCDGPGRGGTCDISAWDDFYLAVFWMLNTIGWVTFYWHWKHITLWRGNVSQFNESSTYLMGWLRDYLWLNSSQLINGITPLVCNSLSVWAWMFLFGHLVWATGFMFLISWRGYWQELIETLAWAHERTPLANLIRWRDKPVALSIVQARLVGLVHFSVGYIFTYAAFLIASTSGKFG

Sequence of PsaA (Pisum sativum photosystem I) (P05310 16-758): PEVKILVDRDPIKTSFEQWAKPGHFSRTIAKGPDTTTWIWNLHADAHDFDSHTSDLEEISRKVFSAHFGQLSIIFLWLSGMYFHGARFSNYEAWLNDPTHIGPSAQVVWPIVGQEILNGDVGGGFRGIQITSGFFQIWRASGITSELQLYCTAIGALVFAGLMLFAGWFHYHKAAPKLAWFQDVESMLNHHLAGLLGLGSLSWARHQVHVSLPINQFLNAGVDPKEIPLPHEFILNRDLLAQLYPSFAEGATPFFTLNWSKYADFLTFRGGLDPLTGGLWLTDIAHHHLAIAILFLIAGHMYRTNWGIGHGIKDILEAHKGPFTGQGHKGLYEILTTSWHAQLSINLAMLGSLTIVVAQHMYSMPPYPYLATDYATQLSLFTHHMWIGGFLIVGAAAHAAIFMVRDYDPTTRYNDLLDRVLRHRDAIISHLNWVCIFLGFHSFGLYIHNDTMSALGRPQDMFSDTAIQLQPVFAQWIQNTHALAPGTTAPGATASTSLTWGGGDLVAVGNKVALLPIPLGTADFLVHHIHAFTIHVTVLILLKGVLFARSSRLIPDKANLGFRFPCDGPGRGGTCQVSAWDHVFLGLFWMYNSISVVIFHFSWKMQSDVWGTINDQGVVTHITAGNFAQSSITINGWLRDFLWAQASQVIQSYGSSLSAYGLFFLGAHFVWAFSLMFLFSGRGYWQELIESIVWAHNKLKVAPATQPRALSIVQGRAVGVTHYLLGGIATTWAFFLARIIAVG

B1: plastocyanin used with Chlamydomonas reinhardtii PSI (natural protein, UniProt P18068 48-145, looked up)
chain: DATVKLGADSGALEFVPKTLTIKSGETVNFVNNAGFPHNIVFDEDAIPSGVNADAISRDDYLNAPGETYSVKLTAAGEYGYYCEPHQGAGMVGKIIVQ
In test [1], B1 returned a Kd of 88 µM.

B2: plastocyanin (Pisum sativum), reduced (natural protein, Pisum sativum (pea), UniProt P16002 70-168, looked up)
chain: VEVLLGASDGGLAFVPSSLEVSAGETIVFKNNAGFPHNVVFDEDEIPAGVDASKISMPEEDLLNAPGETYSVKLDAKGTYKFYCSPHQGAGMVGQVTVN
Take B2: the binding result in test [2] and in test [3] was “binds” in each case.
